Data set [1] deals with the molecule itself. The data set is described as follows: SEC; HPLC, TSKgel-SWXLG3000 column; INHis at 50 µM; running buffer 20 mM HEPES pH 7.4, 750 mM NaCl, 3.75 mM CHAPS; 4°C as possible; self-association (tetramer, dimer, monomer). Background: Size exclusion chromatography separates by hydrodynamic size, large species first.
Data set [2] addresses T1, His-tagged lens epithelium-derived growth factor p75 (LEDGF/p75) (human (sequence derived from 293T cells), UniProt O75475 1-530).
T1 construct: also called LEDGFHis; LEDGF/p75His; source: E. coli Rosetta (DE3) pLysS, purified (His-TALON column); not shown: His6, N-terminal, kept
The data set is described as follows: pull-down; F-IN (2 µM) and LEDGF/p75His (2 µM) 30 min at RT in 50 mM HEPES pH 7.0, 300 mM NaCl, 2 mM MgCl2, 2 mM BME, 5% glycerol, 0.2% NP-40, 20 mM imidazole; His 60 Ni resin; wash with 1 M NaCl; Coomassie staining. Particulars: both partners purified.

T1 sequence (O75475 whole entry): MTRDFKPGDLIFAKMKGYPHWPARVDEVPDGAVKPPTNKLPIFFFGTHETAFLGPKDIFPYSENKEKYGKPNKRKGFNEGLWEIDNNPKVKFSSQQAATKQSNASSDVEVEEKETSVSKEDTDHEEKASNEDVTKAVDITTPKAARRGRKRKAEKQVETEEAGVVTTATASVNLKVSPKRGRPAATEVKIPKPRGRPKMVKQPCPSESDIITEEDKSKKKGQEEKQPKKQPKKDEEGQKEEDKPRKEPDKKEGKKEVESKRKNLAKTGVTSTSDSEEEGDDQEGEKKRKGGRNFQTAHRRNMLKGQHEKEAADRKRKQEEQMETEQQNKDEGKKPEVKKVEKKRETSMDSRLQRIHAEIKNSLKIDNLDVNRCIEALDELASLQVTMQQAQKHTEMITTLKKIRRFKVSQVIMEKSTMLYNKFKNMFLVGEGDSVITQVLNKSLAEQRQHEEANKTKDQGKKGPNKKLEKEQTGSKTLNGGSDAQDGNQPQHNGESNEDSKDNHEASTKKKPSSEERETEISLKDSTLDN

B1: recombinant His-tagged HIV-1 integrase, wild type (IN^WT) (enzyme)
chain: FLDGIDKAQEEHEKYHSNWRAMASDFNLPPVVAKEIVASCDKCQLKGEAMHGQVDCSPGIWQLDCTHLEGKVILVAVHVASGYIEAEVIPAETGQETAYFLLKLAGRWPVKTVHTDNGSNFTSTTVKAACWWAGIKQEFGIPYNPQSQGVIESMNKELKKIIGQVRDQAEHLKTAVQMAVFIHNFKRKGGIGGYSAGERIVDIIATDIQTKELQKQITKIQNFRVYYRDSRDPVWKGPAKLLWKGEGAVVIQDNSDIKVVPRRKAKIIRDYGKQMAGDDCVASRQDED
notes: pET30a IN-6xHis; also called INHis; IN-6xHis; source: E. coli Rosetta (DE3) pLysS, purified (His-TALON column); not shown: His6, C-terminal, kept
On to B1, for which the “stoichiometry N” value in data set [1] is 2.

B2: Flag-tagged HIV-1 integrase, wild type (F-IN^WT) (enzyme)
chain: B1 chain
notes: pET30a Flag-IN; also called Flag-IN; source: E. coli Rosetta (DE3) pLysS, purified (by previous reports, Kessl et al., 2012); not shown: FLAG, N-terminal, kept
Consider B2, for which the binding result in data set [2] is listed as “binds”.

As a reminder, the stoichiometry N is a count of units in the complex or per binding partner.

Values taken from paper doi:10.1101/836718, “A unique conformational escape reaction of HIV-1 against an allosteric integrase inhibitor” (bioRxiv, 2019).
